The text below walks through data of article PMC6566460.

For the experiment, the target named is recombinant histone H2B (UniProt P06899). Nature of the experiment: SEC + other: RP-HPLC; synthetic H2A.Z and recombinant H2B unfolded together (7 M Gdn·HCl, 20 mM mercaptoethanol, 20 mM Tris·HCl, pH 7.5; 2 h on ice), dialysed three times against refolding buffer (2.0 M NaCl, 2.0 mM mercaptoethanol, 10 mM Tris·HCl, pH 7.5) at 4 °C for 3 h; SEC of the reconstituted mixture, then RP-HPLC at 280 nm; ratio from peak areas and the number of tyrosines.

As to “synthetic histone H2A.Z (from UniProt P0C0S5 1-128) (natural protein)”, the stoichiometry N (in general, a count of units in the complex or per binding partner) was found to be 1.
